Values quoted from earlier work in paper PMC6389997.

Columns and labels:
Conditions in all cases: cited from earlier work
[1] = target: sigma32 (Escherichia coli) (UniProt P0AGB3)
[2] = target: Im7 (unfolded-like) (Escherichia coli) (UniProt Q03708)
[3] = target: Im7 (folded) (Escherichia coli) (UniProt Q03708)
[4] = target: Im7 (intermediate-like) (Escherichia coli) (UniProt Q03708)
Sequence of Im7 (intermediate-like) (Escherichia coli) (Q03708 whole entry): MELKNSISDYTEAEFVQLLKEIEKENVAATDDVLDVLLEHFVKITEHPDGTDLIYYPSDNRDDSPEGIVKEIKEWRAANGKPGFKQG

Sequence of Spy (P77754 24-161): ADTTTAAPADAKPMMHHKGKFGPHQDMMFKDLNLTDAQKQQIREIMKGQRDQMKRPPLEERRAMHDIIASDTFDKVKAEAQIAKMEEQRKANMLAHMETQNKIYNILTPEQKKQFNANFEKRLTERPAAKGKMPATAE
Sequence of sigma32 (Escherichia coli) (P0AGB3 whole entry): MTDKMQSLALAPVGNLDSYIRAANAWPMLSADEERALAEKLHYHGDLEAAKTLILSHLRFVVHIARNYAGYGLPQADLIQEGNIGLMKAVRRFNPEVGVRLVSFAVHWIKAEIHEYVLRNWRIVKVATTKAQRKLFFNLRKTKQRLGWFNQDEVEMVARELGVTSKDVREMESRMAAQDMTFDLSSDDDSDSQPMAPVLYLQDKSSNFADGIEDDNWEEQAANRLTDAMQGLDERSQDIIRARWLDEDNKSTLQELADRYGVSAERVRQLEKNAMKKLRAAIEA
Sequence of DnaK (P0A6Y8 2-638): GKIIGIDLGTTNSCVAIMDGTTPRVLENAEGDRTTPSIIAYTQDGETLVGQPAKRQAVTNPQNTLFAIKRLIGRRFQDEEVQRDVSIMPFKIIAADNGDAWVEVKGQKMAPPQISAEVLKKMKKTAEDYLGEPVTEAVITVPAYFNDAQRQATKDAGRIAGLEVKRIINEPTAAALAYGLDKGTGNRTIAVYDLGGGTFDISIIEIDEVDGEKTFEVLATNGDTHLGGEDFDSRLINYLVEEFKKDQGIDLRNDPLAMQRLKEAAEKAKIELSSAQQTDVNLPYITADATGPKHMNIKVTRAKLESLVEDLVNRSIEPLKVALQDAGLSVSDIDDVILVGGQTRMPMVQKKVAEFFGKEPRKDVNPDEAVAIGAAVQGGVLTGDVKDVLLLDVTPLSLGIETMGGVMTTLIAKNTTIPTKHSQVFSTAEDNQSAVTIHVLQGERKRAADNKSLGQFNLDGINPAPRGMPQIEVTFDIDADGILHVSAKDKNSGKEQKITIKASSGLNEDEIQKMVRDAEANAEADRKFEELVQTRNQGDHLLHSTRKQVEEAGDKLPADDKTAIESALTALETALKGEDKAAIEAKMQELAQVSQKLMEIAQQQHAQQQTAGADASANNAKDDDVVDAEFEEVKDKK
Sequence of Im7 (folded) (Escherichia coli) (Q03708 whole entry): as the sequence (Q03708 whole entry) above
Sequence of Im7 (unfolded-like) (Escherichia coli) (Q03708 whole entry): as above

## DnaK (from UniProt P0A6Y8)
[1]
  Kd: 1.4 µM

## Spy (from UniProt P77754)
[2]
  Kd: 10.4 µM
[3]
  Kd: 20.5 µM
[4]
  Kd: 3.5 µM
